Data published in US20100113367A1 (IPSEN PHARMA S A S, published 2010).
Numbered stars: 1 amine (or outer) side, 2 acyl side, 3 side chain; on linkers, the order of the positions; unused ones are H or OH. Bridge positions count the residues as written; N and C are the ends. Square brackets hold non-standard residues; d marks the D form. Pipz(1-CH2CO,4-CH2CH2NH) = O=C(CN1CCN(CCN[*:1])CC1)[*:2]; Tyr(3-I) = N[C@@H](Cc1ccc(O)c(I)c1)C(=O)O; Suc = O=C(CCC(=O)[*:2])[*:1]; Nle = CCCC[C@H](N)C(=O)O; rvGly = not defined here; Glut = not defined here; Abu = CC[C@H](N)C(=O)O; Apn = not defined here; AEEA = NCCOCCOCC(=O)O; Ahx = NCCCCCC(=O)O; GABA = NCCCC(=O)O; βAla = NCCC(=O)O

B1: Camptothecin-rvGly-Suc-(Doc)4-Arg-D-Ala-D-Tyr-Gln-Trp-Ala-Val-β-Ala-His-Leu-Nle-NH2 (peptide)
peptide: {Camptothecin-rvGly-Suc-AEEA-AEEA-AEEA-AEEA}-R[dA][dY]QWAV[βAla]HL[Nle]-NH2
modifications: reading uncertain; also: printed as Camptothecin-rvGly-Suc-(Doc)4-Arg-D-Ala-D-Tyr-Gln-Trp-Ala-Val-β-Ala-His-Leu-Nle-NH2
notes: Bombesin analog conjugate
B2: Camptothecin-rvGly-Suc-(Doc)4-Aepa-Gaba-D-Ser-D-Tyr-Gln-Trp-Ala-Val-β-Ala-His-Leu-Nle-NH2 (peptide)
peptide: {Camptothecin-rvGly-Suc-AEEA-AEEA-AEEA-AEEA-Pipz(1-CH2CO,4-CH2CH2NH)}-[GABA][dS][dY]QWAV[βAla]HL[Nle]-NH2
modifications: reading uncertain; also: printed as Camptothecin-rvGly-Suc-(Doc)4-Aepa-Gaba-D-Ser-D-Tyr-Gln-Trp-Ala-Val-β-Ala-His-Leu-Nle-NH2
notes: Bombesin analog conjugate
B3: Camptothecin-rvGly-Suc-(Doc)4-Lys-D-Ser-D-Tyr-Gln-Trp-Ala-Val-β-Ala-His-Leu-Nle-NH2 (peptide)
peptide: {Camptothecin-rvGly-Suc-AEEA-AEEA-AEEA-AEEA}-K[dS][dY]QWAV[βAla]HL[Nle]-NH2
modifications: reading uncertain; also: printed as Camptothecin-rvGly-Suc-(Doc)4-Lys-D-Ser-D-Tyr-Gln-Trp-Ala-Val-β-Ala-His-Leu-Nle-NH2
notes: Bombesin analog conjugate
B4: Camptothecin-rvGly-Suc-(Doc)4-Aepa-D-Ser-D-Tyr-Gln-Trp-Ala-Val-β-Ala-His-Leu-Nle-NH2 (peptide)
peptide: {Camptothecin-rvGly-Suc-AEEA-AEEA-AEEA-AEEA-Pipz(1-CH2CO,4-CH2CH2NH)}-[dS][dY]QWAV[βAla]HL[Nle]-NH2
modifications: reading uncertain; also: printed as Camptothecin-rvGly-Suc-(Doc)4-Aepa-D-Ser-D-Tyr-Gln-Trp-Ala-Val-β-Ala-His-Leu-Nle-NH2
B5: Camptothecin-rvGly-Suc-(Doc)4-Aepa-Apn-Asn-Gln-Trp-Ala-Val-β-Ala-His-Leu-Nle-NH2 (peptide)
peptide: Camptothecin-[rvGly][Suc][AEEA][AEEA][AEEA][AEEA][Pipz(1-CH2CO,4-CH2CH2NH)][Apn]NQWAV[βAla]HL[Nle]-NH2
modifications: reading uncertain; also: printed as Camptothecin-rvGly-Suc-(Doc)4-Aepa-Apn-Asn-Gln-Trp-Ala-Val-β-Ala-His-Leu-Nle-NH2

What follows are binders tested against T1, native bombesin/GRP receptor of AR42J rat pancreas cells (rat, UniProt P52500 1-384) (assay: radioligand displacement, AR42J rat pancreas cell membranes, tracer [125I-Tyr4]bombesin).
T1 construct: whole, on cells; Used as membrane homogenate of AR42J cells; also called bombesin receptor
T1 sequence (P52500 whole entry): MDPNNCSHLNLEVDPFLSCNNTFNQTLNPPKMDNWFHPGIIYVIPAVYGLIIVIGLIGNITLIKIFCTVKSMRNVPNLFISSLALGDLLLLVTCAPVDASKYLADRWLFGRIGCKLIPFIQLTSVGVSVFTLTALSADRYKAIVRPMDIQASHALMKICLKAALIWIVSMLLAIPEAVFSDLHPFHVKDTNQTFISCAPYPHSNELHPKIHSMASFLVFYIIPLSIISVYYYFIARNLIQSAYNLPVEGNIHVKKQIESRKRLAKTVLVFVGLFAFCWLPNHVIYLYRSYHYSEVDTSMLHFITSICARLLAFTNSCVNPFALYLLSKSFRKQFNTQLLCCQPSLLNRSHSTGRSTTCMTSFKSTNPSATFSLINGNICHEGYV
Protocol: The homogenates were washed twice by centrifugation (39,000 g/10 minutes) and the final pellets were resuspended in 50 mM Tris-HCl containing 2.5 mM MgCl₂ and 0.1% BSA. For the assay, aliquots of membrane homogenate (0.4 ml) were incubated with 0.05 nM [¹²⁵I-Tyr4]bombesin (2200 Ci/mmol) (New England Nuclear®, Boston, Mass., U.S.A.) with and without 0.05 ml of unlabeled competing test peptides. After a 30 minute incubation period at 4° C., the bound [¹²⁵I-Tyr4]bombesin was separated from the free bombesin by rapid filtration through GF/B filters (Brandel®, Gaithersburg, Md., U.S.A.) which had been previously soaked in 0.3% polyethyleneimine. The filters were then washed three times with 5-ml aliquots of ice-cold 50 mM Tris-HCl. The bound radioactivity trapped on the filters was counted by gamma spectrometry (Wallac LKB®, Gaithersburg, Md., U.S.A.). Specific binding was defined as the total [¹²⁵I-Tyr4]bombesin bound minus that bound in the presence of 1000 nM bombesin (Bachem®, Torrence, Calif., U.S.A>).

Row | Binder | Ki [nM]
1 | B1 | 1.1
2 | B2 | 4.82
3 | B3 | 1.45

The binders below were run against human somatostatin receptor subtype hSSTR-5 (human) (UniProt P35346) (assay: radioligand displacement, CHO-K1 hSSTR-5 membranes, tracer m40).
Chain of human somatostatin receptor subtype hSSTR-5 (human) (P35346 whole entry): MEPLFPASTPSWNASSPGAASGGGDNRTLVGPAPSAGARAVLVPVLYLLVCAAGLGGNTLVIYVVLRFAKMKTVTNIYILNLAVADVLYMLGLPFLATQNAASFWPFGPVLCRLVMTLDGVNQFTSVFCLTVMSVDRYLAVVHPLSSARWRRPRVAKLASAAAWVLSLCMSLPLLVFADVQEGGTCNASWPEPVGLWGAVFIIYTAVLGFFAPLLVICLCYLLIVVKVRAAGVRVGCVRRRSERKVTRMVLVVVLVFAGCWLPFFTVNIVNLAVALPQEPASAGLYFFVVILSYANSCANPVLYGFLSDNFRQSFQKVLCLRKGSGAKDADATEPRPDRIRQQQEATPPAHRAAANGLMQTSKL

Row | Binder | Ki [nM]
4 | {Camptothecin-rvGly-Glut-AEEA-AEEA-AEEA-AEEA-AEEA-AEEA}-K[dY][dY]C[Tyr(3-I)][dW]K[Abu]CT-NH2 (disulfide 4-9; reading uncertain) [Camptothecin-rvGly-Glut-(Doc)6-Lys-D-Tyr-D-Tyr-c(Cys-3-(I)Tyr-D-Trp-Lys-Abu-Cys)-Thr-NH2] | 3
5 | {Camptothecin-rvGly-Glut-AEEA-AEEA-AEEA-AEEA}-K[dY][dY]CFF[dW]KTC-NH2 (disulfide 4-10; reading uncertain) [Camptothecin-rvGly-Glut-(Doc)4-Lys-D-Tyr-D-Tyr-c(Cys-Phe-Phe-D-Trp-Lys-Thr-Cys)-NH2] | 481
6 | {Camptothecin-rvGly-Glut-AEEA-AEEA-AEEA-AEEA}-K[dY][dY]C[Tyr(3-I)][dW]K[Abu]CT-NH2 (disulfide 4-9; reading uncertain) [Camptothecin-rvGly-Glut-(Doc)4-Lys-D-Tyr-D-Tyr-c(Cys-3-(I)Tyr-D-Trp-Lys-Abu-Cys)-Thr-NH2] | 3.86

Each binder was assayed against human somatostatin receptor subtype hSSTR-2 (human) (UniProt P30874) (assay: radioligand displacement, CHO-K1 hSSTR-2 membranes, tracer m39).
Chain of human somatostatin receptor subtype hSSTR-2 (human) (P30874 whole entry): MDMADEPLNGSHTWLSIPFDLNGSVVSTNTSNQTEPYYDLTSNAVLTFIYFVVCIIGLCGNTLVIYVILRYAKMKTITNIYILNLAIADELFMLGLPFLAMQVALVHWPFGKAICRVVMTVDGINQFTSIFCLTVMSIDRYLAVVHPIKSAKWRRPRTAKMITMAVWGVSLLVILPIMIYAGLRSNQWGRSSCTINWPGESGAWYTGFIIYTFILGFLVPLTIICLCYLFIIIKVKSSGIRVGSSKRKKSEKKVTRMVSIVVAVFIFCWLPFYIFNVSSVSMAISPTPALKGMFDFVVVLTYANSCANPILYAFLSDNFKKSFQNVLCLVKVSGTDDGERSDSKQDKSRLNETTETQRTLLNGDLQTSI

Row | Binder | Ki [nM]
7 | {Camptothecin-rvGly-Glut-AEEA-AEEA-AEEA-AEEA-AEEA-AEEA}-K[dY][dY]C[Tyr(3-I)][dW]K[Abu]CT-NH2 (disulfide 4-9; reading uncertain) [Camptothecin-rvGly-Glut-(Doc)6-Lys-D-Tyr-D-Tyr-c(Cys-3-(I)Tyr-D-Trp-Lys-Abu-Cys)-Thr-NH2] | 0.36
8 | {Camptothecin-rvGly-Glut-AEEA-AEEA-AEEA-AEEA}-K[dY][dY]CFF[dW]KTC-NH2 (disulfide 4-10; reading uncertain) [Camptothecin-rvGly-Glut-(Doc)4-Lys-D-Tyr-D-Tyr-c(Cys-Phe-Phe-D-Trp-Lys-Thr-Cys)-NH2] | 9.38
9 | {Camptothecin-rvGly-Glut-AEEA-AEEA-AEEA-AEEA}-K[dY][dY]C[Tyr(3-I)][dW]K[Abu]CT-NH2 (disulfide 4-9; reading uncertain) [Camptothecin-rvGly-Glut-(Doc)4-Lys-D-Tyr-D-Tyr-c(Cys-3-(I)Tyr-D-Trp-Lys-Abu-Cys)-Thr-NH2] | 0.1

Each binder was assayed against human somatostatin receptor subtype hSSTR-3 (human) (UniProt P32745) (assay: radioligand displacement, CHO-K1 hSSTR-3 membranes, tracer [125I-Tyr11]SRIF-14).
Chain of human somatostatin receptor subtype hSSTR-3 (human) (P32745 whole entry): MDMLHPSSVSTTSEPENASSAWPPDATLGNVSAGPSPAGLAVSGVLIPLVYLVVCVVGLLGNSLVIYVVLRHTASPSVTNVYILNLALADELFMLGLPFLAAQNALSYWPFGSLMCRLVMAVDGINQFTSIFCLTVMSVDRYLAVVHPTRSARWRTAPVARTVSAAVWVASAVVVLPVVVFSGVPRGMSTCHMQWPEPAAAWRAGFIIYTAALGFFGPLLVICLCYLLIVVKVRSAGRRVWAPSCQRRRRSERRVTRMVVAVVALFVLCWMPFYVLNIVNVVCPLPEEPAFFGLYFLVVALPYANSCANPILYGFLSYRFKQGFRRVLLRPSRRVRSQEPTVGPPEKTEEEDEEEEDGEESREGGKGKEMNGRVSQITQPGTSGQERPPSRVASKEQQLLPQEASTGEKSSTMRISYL

Row | Binder | Ki [nM]
10 | {Camptothecin-rvGly-Glut-AEEA-AEEA-AEEA-AEEA-AEEA-AEEA}-K[dY][dY]C[Tyr(3-I)][dW]K[Abu]CT-NH2 (disulfide 4-9; reading uncertain) [Camptothecin-rvGly-Glut-(Doc)6-Lys-D-Tyr-D-Tyr-c(Cys-3-(I)Tyr-D-Trp-Lys-Abu-Cys)-Thr-NH2] | 125
11 | {Camptothecin-rvGly-Glut-AEEA-AEEA-AEEA-AEEA}-K[dY][dY]C[Tyr(3-I)][dW]K[Abu]CT-NH2 (disulfide 4-9; reading uncertain) [Camptothecin-rvGly-Glut-(Doc)4-Lys-D-Tyr-D-Tyr-c(Cys-3-(I)Tyr-D-Trp-Lys-Abu-Cys)-Thr-NH2] | 94

Each binder was assayed against native bombesin/GRP receptor of AR42J rat pancreas cells (rat) (UniProt P52500) (assay: radioligand displacement, AR42J rat pancreas cell membranes, tracer [125I-Tyr4]bombesin).
Chain of native bombesin/GRP receptor of AR42J rat pancreas cells (rat) (P52500 whole entry): as the sequence (P52500 whole entry) above

Row | Binder | Ki [nM]
12 | B4 | 3.96
13 | Camptothecin-[rvGly][Suc][AEEA][AEEA][AEEA][AEEA][Pipz(1-CH2CO,4-CH2CH2NH)][Ahx]QWAV[βAla]HL[Nle]-NH2 [Camptothecin-rvGly-Suc-(Doc)4-Aepa-Ahx-Gln-Trp-Ala-Val-β-Ala-His-Leu-Nle-NH2] | 1.9
14 | Camptothecin-[rvGly][Suc][AEEA][AEEA][AEEA][AEEA][Pipz(1-CH2CO,4-CH2CH2NH)][GABA]NQWAV[βAla]HL[Nle]-NH2 [Camptothecin-rvGly-Suc-(Doc)4-Aepa-Gaba-Asn-Gln-Trp-Ala-Val-β-Ala-His-Leu-Nle-NH2] | 7.65
15 | Camptothecin-[rvGly][Suc][AEEA][AEEA][AEEA][AEEA][Pipz(1-CH2CO,4-CH2CH2NH)]L[GABA]QWAV[βAla]HL[Nle]-NH2 [Camptothecin-rvGly-Suc-(Doc)4-Aepa-Leu-Gaba-Gln-Trp-Ala-Val-β-Ala-His-Leu-Nle-NH2] | 18.2
16 | Camptothecin-[rvGly][Suc][AEEA][AEEA][AEEA][AEEA][Pipz(1-CH2CO,4-CH2CH2NH)][Nle]QWAV[βAla]HL[Nle]-NH2 [Camptothecin-rvGly-Suc-(Doc)4-Aepa-Nle-Gln-Trp-Ala-Val-β-Ala-His-Leu-Nle-NH2] | 4.57
17 | B5 | 4.07
